Measured values from PMC10899662, “TopBP1 utilises a bipartite GINS binding mode to support genome replication” (Nature Communications, 2024).

System: chromatin-bound replication proteins
Test: Chromatin mass spectrometry (CHROMASS) from TopBP1-depleted Xenopus egg extracts
Type: biochemical, Xenopus laevis
Conditions: mass spectrometry and immunoblotting; 75 min after starting replication, aphidicolin added, TopBP1 6 ng/µl; n = 4 for MS
Protocol: Fig. 6 GINS binding to TopBP1 is required for the origin firing step of replication. a–c Heat map showing the intensity of chromatin-bound proteins recovered from TopBP1-depleted interphase Xenopus egg extracts supplemented wild type or mutant TopBP1 determined by quantitative mass spectrometry. Chromatin was isolated 75 min after sperm addition. All extracts contained […] aphidicolin and, where indicated, […] geminin. […] For the intensities of all proteins see Supplementary Data 2. b, c Volcano plots highlighting a selection of differentially detected proteins in samples described in (a). Log2 transformed LFQ intensities from four replicates each were analysed by a two-sided Student’s t-test. […] Coomassie staining of the gel part containing histones served as a loading control.
For chromatin isolation, XTopBP1-depleted interphase egg extract was supplemented with 50 µg/ml aphidicolin and aliquoted into 15 µl samples before addition of buffer or recombinant TopBP1 to a final concentration 6 ng/µl. 2.25 µM Xgeminin or buffer were added before incubation for 10 min on ice. To start the replication, 9 ng sperm DNA/µl extract was added and incubated for 75 min at 23 °C. […] For MS analysis, four biological replicates of chromatin pellets were analysed by CHROMASS[45]. […]

B1: TopBP1-BRCT0-5-WT: recombinant TopBP1 amino acids 1–766, strep-tagged (protein)
chain: MSRNDKEPFFVKFLKSSDNSKCFFKALESIKEFQSEEYLQIITEEEALKIKENDRSLYICDPFSGVVFDHLKKLGCRIVGPQVVIFCMHHQRCVPRAEHPVYNMVMSDVTISCTSLEKEKREEVHKYVQMMGGRVYRDLNVSVTHLIAGEVGSKKYLVAANLKKPILLPSWIKTLWEKSQEKKITRYTDINMEDFKCPIFLGCIICVTGLCGLDRKEVQQLTVKHGGQYMGQLKMNECTHLIVQEPKGQKYECAKRWNVHCVTTQWFFDSIEKGFCQDESIYKTEPRPEAKTMPNSSTPTSQINTIDSRTLSDVSNISNINASCVSESICNSLNSKLEPTLENLENLDVSAFQAPEDLLDGCRIYLCGFSGRKLDKLRRLINSGGGVRFNQLNEDVTHVIVGDYDDELKQFWNKSAHRPHVVGAKWLLECFSKGYMLSEEPYIHANYQPVEIPVSHKPESKAALLKKKNSSFSKKDFAPSEKHEQADEDLLSQYENGSSTVVEAKTSEARPFNDSTHAEPLNDSTHISLQEENQSSVSHCVPDVSTITEEGLFSQKSFLVLGFSNENESNIANIIKENAGKIMSLLSRTVADYAVVPLLGCEVEATVGEVVTNTWLVTCIDYQTLFDPKSNPLFTPVPVMTGMTPLEDCVISFSQCAGAEKESLTFLANLLGASVQEYFVRKSNAKKGMFASTHLILKERGGSKYEAAKKWNLPAVTIAWLLETARTGKRADESHFLIENSTKEERSLETEITNGINLNSDTAEHP
modifications: left off: Strep, C-terminal, kept
notes: recombinant TopBP1 amino acids 1–766, strep-tagged
chromatin binding of replisome markers / Mcm2-7: Several replisome markers, including GINS and Cdc45, were detected on chromatin
